This note sets out measurements from doi:10.1101/2023.08.24.554544.

The target of the assay is GST-tagged A. thaliana Rpn10 (AtRpn10) vWA domain (Arabidopsis thaliana) (UniProt P55034). The experiment in a line: SPR.

pKd: −log10 of the molar value.

Sequence of GST-tagged A. thaliana Rpn10 (AtRpn10) vWA domain (Arabidopsis thaliana) (P55034 2-193): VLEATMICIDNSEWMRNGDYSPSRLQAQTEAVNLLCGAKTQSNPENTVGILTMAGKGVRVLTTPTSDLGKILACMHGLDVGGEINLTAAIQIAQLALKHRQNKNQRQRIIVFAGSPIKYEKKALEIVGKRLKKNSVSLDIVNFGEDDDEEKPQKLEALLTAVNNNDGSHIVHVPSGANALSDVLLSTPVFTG

In turn, “V-shape-GSGS-C-ter peptide (fused V-shape and C-ter peptide of SAP05, linked by the GSGS linker)” gave a pKd of 4.46.
